US20220235135A1 (COUNCIL OF THE QUEENSLAND INSTITUTE OF MEDICAL RESEARCH, published 2022)
Substitutions are numbered along the chain they refer to.

B1: P9-10 (antibody, human IgG1, kappa, V domains shown)
VH: EVQLVESGGGLVQPGGSLRLSCAASGFTFDYYVIHWVRQAPGKGLEWVAAIDSYWGDTYYADSVKGRFTISADTSKNTAYLQMNSLRAEDTAVYYCARFYFYGFDYWGQGTLVTVSS
VL: DIQMTQSPSSLSASVGDRVTITCRASQSVSSAVAWYQQKPGKAPKLLIYSASSLYSGVPSRFSGSRSGTDFTLTISSLQPEDFATYYCQQYSWSLWTFGQGTKVEIKR
notes: bivalent monospecific native human full-length IgG1; also called ABS clone P9-10
B2: P9-18 (antibody, human IgG1, kappa, V domains shown)
VH: B1 VH with D30S, Y31W, D52Y, S53P, W55H, G56S, D57K, F99G, F101W, F104M
VL: B1 VL with S92T, W93D, S94A, L95P
notes: the murine IgG backbones were used only in vivo; also called ABS clone P9-18; Clone 18
B3: P9-32 (antibody, human IgG1, kappa, V domains shown)
VH: EVQLVESGGGLVQPGGSLRLSCAASGFTFSAYWIHWVRQAPGKGLEWVALIGPDGGYTYYADSVKGRFTISADTSKNTAYLQMNSLRAEDTAVYYCARQASRGLDYWGQGTLVTVSS
VL: B1 VL with Y91W, W93S, S94P, W96H
notes: bivalent monospecific native human full-length IgG1; also called ABS clone P9-32
B4: P9-15 (antibody, human IgG1, kappa, V domains shown)
VH: EVQLVESGGGLVQPGGSLRLSCAASGFTFRYYWIHWVRQAPGKGLEWVAAIFPSGGITTYADSVKGRFTISADTSKNTAYLQMNSLRAEDTAVYYCARGWPWGLDYWGQGTLVTVSS
VL: B1 VL with Y91R, S92D, W93R, L95P, W96Y
notes: bivalent monospecific native human full-length IgG1; also called ABS clone P9-15; Clone 15
B5: P9-16 (antibody, human IgG1, kappa, V domains shown)
VH: EVQLVESGGGLVQPGGSLRLSCAASGFTFSYYWIHWVRQAPGKGLEWVADIYPSSGYTYYADSVKGRFTISADTSKNTAYLQMNSLRAEDTAVYYCARGWYAAYGMDYWGQGTLVTVSS
VL: B1 VL with S92A, W93L, S94R, L95P, W96L
notes: bivalent monospecific native human full-length IgG1; also called ABS clone P9-16
B6: P9-22 (antibody, human IgG1, kappa, V domains shown)
VH: B5 VH with Y31S, W33Y, D50A, S54F, Y57G, W100Y, A102V, A103Y, Y104V, G105V
VL: B1 VL with S92K, W93S, L95P
notes: bivalent monospecific native human full-length IgG1; also called ABS clone P9-22; α-GAL9 (P9-22)
B7: P9-28 (antibody, human IgG1, kappa, V domains shown)
VH: EVQLVESGGGLVQPGGSLRLSCAASGFTFGFYYIHWVRQAPGKGLEWVAFIDPHGGSTYYADSVKGRFTISADTSKNTAYLQMNSLRAEDTAVYYCARLSYPGVLDYWGQGTLVTVSS
VL: B1 VL with Y91G, S92Y, W93S, S94T, W96V
notes: bivalent monospecific native human full-length IgG1; also called ABS clone P9-28; α-GAL9 (P9-28)

target: T1, Human GAL9 protein (Galectin-9) (human, UniProt O00182 1-355); assay: Octet BLI, IgG1 on biosensor, GAL9 analyte dilution series, global fit (monovalent affinity)
T1 construct: Bought His-tagged protein; also called hGAL9; Human Gal9 His-tag (Acro Biosystems Cat #LG9-H5244)
T1 sequence (O00182 whole entry): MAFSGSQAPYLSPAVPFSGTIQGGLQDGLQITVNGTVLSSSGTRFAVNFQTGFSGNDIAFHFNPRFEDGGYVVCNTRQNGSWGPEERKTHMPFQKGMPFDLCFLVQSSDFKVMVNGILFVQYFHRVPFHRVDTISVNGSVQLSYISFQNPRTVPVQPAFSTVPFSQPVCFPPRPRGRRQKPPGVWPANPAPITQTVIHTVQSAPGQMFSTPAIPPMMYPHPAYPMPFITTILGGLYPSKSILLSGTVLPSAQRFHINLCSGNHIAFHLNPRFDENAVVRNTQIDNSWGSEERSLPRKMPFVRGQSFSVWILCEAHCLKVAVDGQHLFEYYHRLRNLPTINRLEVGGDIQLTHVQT
Method: To measure qualitative binding affinity in the GAL9 binder discovery campaigns, IgG1 reformatted binders were immobilized to a biosensor on an Octet (Pall ForteBio) biolayer interferometer.
Soluble GAL9 antigen was then added to the system and binding measured. […] Octet kinetic analysis software was used to calculate the kinetic and equilibrium binding constants based on the rate of association and dissociation curves. Analysis was performed globally (global fit) where kinetic constants were derived simultaneously from all analyte concentration included in the experiment.

Binder | Kd
B1 | 5.77 nM
B2 | 6.24 nM
B3 | 1.08 nM
B4 | 2.21 nM
B5 | 2.87 nM
B6 | 4.85 nM
B7 | 3.36 nM
